Source: patent publication US20240392023A1 (ABCLON, published 2024)

B1: scFv CAR of anti CD30 antibody (T1-117), on CAR-T cells (other)
chain: EVQLLESGGGLVQPGGSLRLSCAASGFTFSYYGMSWVRQAPGKGLEWVSYISGYSSYTYYADSVKGRFTISRDNSKNTLYLQMNSLRAEDTAVYYCARYNDSGSFDYWGQGTLVTVSSGGGGSGGGGSGGGGSQSVLTQPPSASGTPGQRVTISCSGSSSNIGSNYVYWYQQLPGTAPKLLIYRNNQRPSGVPDRFSGSKSGTSASLAISGLRSEDEADYYCAADAGNRYVFGGGTKLTVLGGQAGQTTTPAPRPPTPAPTIASQPLSLRPEACRPAAGGAVHTRGLDFACDIYIWAPLAGTCGVLLLSLVITLYCKRGRKKLLYIFKQPFMRPVQTTQEEDGCSCRFPEEEEGGCELRVKFSRSADAPAYQQGQNQLYNELNLGRREEYDVLDKRRGRDPEMGGKPRRKNPQEGLYNELQKDKMAEAYSEIGMKGERRRGKGHDGLYQGLSTATKDTYDALHMQALPPR
B2: scFv CAR of anti CD30 antibody (T1-23), on CAR-T cells (other)
chain: EVQLLESGGGLVQPGGSLRLSCAASGFTFSSYSMSWVRQAPGKGLEWVSGIGYPYYTYYADSVKGRFTISRDNSKNTLYLQMNSLRAEDTAVYYCARYYYDYGFDYWGQGTLVTVSSGGGGSGGGGSGGGGSQSVLTQPPSASGTPGQRVTISCSGSSSNIGSNYVYWYQQLPGTAPKLLIYRNNQRPSGVPDRFSGSKSGTSASLAISGLRSEDEADYYCAAYRSYDYVFGGGTKLTVLGGQAGQTTTPAPRPPTPAPTIASQPLSLRPEACRPAAGGAVHTRGLDFACDIYIWAPLAGTCGVLLLSLVITLYCKRGRKKLLYIFKQPFMRPVQTTQEEDGCSCRFPEEEEGGCELRVKFSRSADAPAYQQGQNQLYNELNLGRREEYDVLDKRRGRDPEMGGKPRRKNPQEGLYNELQKDKMAEAYSEIGMKGERRRGKGHDGLYQGLSTATKDTYDALHMQALPPR
B3: scFv CAR of anti CD30 antibody (T1-8), on CAR-T cells (other)
chain: EVQLLESGGGLVQPGGSLRLSCAASGFTFSSYMSWVRQAPGKGLEWVSSIGSGYYSTYYADSVKGRFTISRDNSKNTLYLQMNSLRAEDTAVYYCARDYYGGFDYWGQGTLVTVSSGGGGSGGGGSGGGGSQSVLTQPPSASGTPGQRVTISCSGSSSNIGSNYVYWYQQLPGTAPKLLIYRNNQRPSGVPDRFSGSKSGTSASLAISGLRSEDEADYYCAAYDSYSYVFGGGTKLTVLGGQAGQTTTPAPRPPTPAPTIASQPLSLRPEACRPAAGGAVHTRGLDFACDIYIWAPLAGTCGVLLLSLVITLYCKRGRKKLLYIFKQPFMRPVQTTQEEDGCSCRFPEEEEGGCELRVKFSRSADAPAYQQGQNQLYNELNLGRREEYDVLDKRRGRDPEMGGKPRRKNPQEGLYNELQKDKMAEAYSEIGMKGERRRGKGHDGLYQGLSTATKDTYDALHMQALPPR
B4: scFv CAR of anti CD30 antibody (T1-36), on CAR-T cells (other)
chain: EVQLLESGGGLVQPGGSLRLSCAASGFTFSYYYMSWVRQAPGKGLEWVSYIGGGGSGTYYADSVKGRFTISRDNSKNTLYLQMNSLRAEDTAVYYCARGPYYGYFDYWGQGTLVTVSSGGGGSGGGGSGGGGSQSVLTQPPSASGTPGQRVTISCSGSSSNIGSNYVYWYQQLPGTAPKLLIYRNNQRPSGVPDRFSGSKSGTSASLAISGLRSEDEADYYCAAYPSYDSYVFGGGTKLTVLGGQAGQTTTPAPRPPTPAPTIASQPLSLRPEACRPAAGGAVHTRGLDFACDIYIWAPLAGTCGVLLLSLVITLYCKRGRKKLLYIFKQPFMRPVQTTQEEDGCSCRFPEEEEGGCELRVKFSRSADAPAYQQGQNQLYNELNLGRREEYDVLDKRRGRDPEMGGKPRRKNPQEGLYNELQKDKMAEAYSEIGMKGERRRGKGHDGLYQGLSTATKDTYDALHMQALPPR
B5: scFv CAR of anti CD30 antibody (T1-10), on CAR-T cells (other)
chain: EVQLLESGGGLVQPGGSLRLSCAASGFTFSSYGMSWVRQAPGKGLEWVSYISGGSYYTYYADSVKGRFTISRDNSKNTLYLQMNSLRAEDTAVYYCARYGYGYYDGSFDYWGQGTLVTVSSGGGGSGGGGSGGGGSQSVLTQPPSASGTPGQRVTISCSGSSSNIGSNYVYWYQQLPGTAPKLLIYRNNQRPSGVPDRFSGSKSGTSASLAISGLRSEDEADYYCAADGPYNYVFGGGTKLTVLGGQAGQTTTPAPRPPTPAPTIASQPLSLRPEACRPAAGGAVHTRGLDFACDIYIWAPLAGTCGVLLLSLVITLYCKRGRKKLLYIFKQPFMRPVQTTQEEDGCSCRFPEEEEGGCELRVKFSRSADAPAYQQGQNQLYNELNLGRREEYDVLDKRRGRDPEMGGKPRRKNPQEGLYNELQKDKMAEAYSEIGMKGERRRGKGHDGLYQGLSTATKDTYDALHMQALPPR
B6: scFv CAR of anti CD30 antibody (T1-7), on CAR-T cells (other)
chain: EVQLLESGGGLVQPGGSLRLSCAASGFTFSGYGMSWVRQAPGKGLEWVSYISSGSYYTYYADSVKGRFTISRDNSKNTLYLQMNSLRAEDTAVYYCARYRGDNDYYGYFDYWGQGTLVTVSSGGGGSGGGGSGGGGSQSVLTQPPSASGTPGQRVTISCSCSSSNIGNNAVSWYQQLPGTAPKLLIYRNNQRPSGVPDRFSGSKSGTSASLAISGLRSEDEADYYCAADYGSDYVFGGGTKLTVLGGQAGQTTTPAPRPPTPAPTIASQPLSLRPEACRPAAGGAVHTRGLDFACDIYIWAPLAGTCGVLLLSLVITLYCKRGRKKLLYIFKQPFMRPVQTTQEEDGCSCRFPEEEEGGCELRVKFSRSADAPAYQQGQNQLYNELNLGRREEYDVLDKRRGRDPEMGGKPRRKNPQEGLYNELQKDKMAEAYSEIGMKGERRRGKGHDGLYQGLSTATKDTYDALHMQALPPR
B7: scFv CAR of anti CD30 antibody (T1-2), on CAR-T cells (other)
chain: EVQLLESGGGLVQPGGSLRLSCAASGFTFSGYGMSWVRQAPGKGLEWVSYISGYSYYTYYADSVKGRFTFSRDNSKNTLYLQMNSLRAEDTAVYYCARYDGNGFDYWGQGTLVTVSSGGGGSGGGGSGGGGSQSVLTQPPSASGTPGQRVTISCSGSSSNIGSNYVYWYQQLPGTAPKLLIYRNNQRPSGVPDRFSGSKSGTSASLAISGLRSEDEADYYCAADSSDDSYVFGGGTKLTVLGGQAGQTTTPAPRPPTPAPTIASQPLSLRPEACRPAAGGAVHTRGLDFACDIYIWAPLAGTCGVLLLSLVITLYCKRGRKKLLYIFKQPFMRPVQTTQEEDGCSCRFPEEEEGGCELRVKFSRSADAPAYQQGQNQLYNELNLGRREEYDVLDKRRGRDPEMGGKPRRKNPQEGLYNELQKDKMAEAYSEIGMKGERRRGKGHDGLYQGLSTATKDTYDALHMQALPPR

target: T1, CD30 expressed on cells (CD30-293T, SUDHL1, HDLM-2) (UniProt P28908 19-595); experiment: cell-based or functional assay
T1 sequence (looked up): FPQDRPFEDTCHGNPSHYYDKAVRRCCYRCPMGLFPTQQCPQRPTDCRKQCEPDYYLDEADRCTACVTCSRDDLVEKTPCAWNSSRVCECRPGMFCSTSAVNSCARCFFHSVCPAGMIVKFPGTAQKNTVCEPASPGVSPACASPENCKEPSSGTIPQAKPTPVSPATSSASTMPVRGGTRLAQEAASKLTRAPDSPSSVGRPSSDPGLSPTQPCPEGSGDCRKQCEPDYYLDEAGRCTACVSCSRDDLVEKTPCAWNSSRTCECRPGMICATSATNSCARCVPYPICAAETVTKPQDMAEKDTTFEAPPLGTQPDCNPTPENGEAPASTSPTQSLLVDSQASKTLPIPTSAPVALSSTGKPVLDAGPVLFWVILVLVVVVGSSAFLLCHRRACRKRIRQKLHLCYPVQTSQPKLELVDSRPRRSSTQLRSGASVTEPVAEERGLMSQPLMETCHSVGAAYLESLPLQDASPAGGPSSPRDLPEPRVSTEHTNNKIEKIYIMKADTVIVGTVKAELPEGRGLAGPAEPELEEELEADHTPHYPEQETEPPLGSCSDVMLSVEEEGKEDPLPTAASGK

Binder | Cytotoxicity (%) against CD30-expressing cell (CD30-293T), CAR-T/Target 0.11 [%] | Cytotoxicity (%) against CD30-expressing cell (CD30-293T), CAR-T/Target 0.33 [%] | Cytotoxicity (%) against CD30-expressing cell (CD30-293T), CAR-T/Target 1 [%]
B1 | -3 | -1 | -14
B2 | 7 | 41 | 79
B3 | -8 | 0 | 35
B4 | 21 | 78 | 98
B5 | 1 | 7 | 33
B6 | -5 | -2 | -2
B7 | 1 | 7 | 13

target: T1, CD30 expressed on cells (CD30-293T, …); experiment: cell-based or functional assay; remark: another data set of the same source

Binder | Cytotoxicity (%) against CD30-expressing cell (SUDHL1), CAR-T/Target 0.11 [%] | Cytotoxicity (%) against CD30-expressing cell (SUDHL1), CAR-T/Target 0.33 [%] | Cytotoxicity (%) against CD30-expressing cell (SUDHL1), CAR-T/Target 1 [%]
B1 | -2 | 11 | 21
B2 | 37 | 68 | 84
B3 | 43 | 60 | 78
B4 | 48 | 89 | 95
B5 | 33 | 60 | 81
B6 | 8 | 18 | 34
B7 | 11 | 35 | 54
